# Results: IntAct's records for PubMed 31515488
# B1: Annexin A10 (Homo sapiens), Q9UJ72 (parent)
# chain: MFCGDYVQGTIFPAPNFNPIMDAQMLGGALQGFDCDKDMLINILTQRCNAQRMMIAEAYQSMYGRDLIGDMREQLSDHFKDVMAGLMYPPPLYDAHELWHAMKGVGTDENCLIEILASRTNGEIFQMREAYCLQYSNNLQEDIYSETSGHFRDTLMNLVQGTREEGYTDPAMAAQDAMVLWEACQQKTGEHKTMLQMILCNKSYQQLRLVFQEFQNISGQDMVDAINECYDGYFQELLVAIVLCVRDKPAYFAYRLYSAIHDFGFHNKTVIRILIARSEIDLLTIRKRYKERYGKSLFHDIRNFASGHYKKALLAICAGDAEDY
# partner: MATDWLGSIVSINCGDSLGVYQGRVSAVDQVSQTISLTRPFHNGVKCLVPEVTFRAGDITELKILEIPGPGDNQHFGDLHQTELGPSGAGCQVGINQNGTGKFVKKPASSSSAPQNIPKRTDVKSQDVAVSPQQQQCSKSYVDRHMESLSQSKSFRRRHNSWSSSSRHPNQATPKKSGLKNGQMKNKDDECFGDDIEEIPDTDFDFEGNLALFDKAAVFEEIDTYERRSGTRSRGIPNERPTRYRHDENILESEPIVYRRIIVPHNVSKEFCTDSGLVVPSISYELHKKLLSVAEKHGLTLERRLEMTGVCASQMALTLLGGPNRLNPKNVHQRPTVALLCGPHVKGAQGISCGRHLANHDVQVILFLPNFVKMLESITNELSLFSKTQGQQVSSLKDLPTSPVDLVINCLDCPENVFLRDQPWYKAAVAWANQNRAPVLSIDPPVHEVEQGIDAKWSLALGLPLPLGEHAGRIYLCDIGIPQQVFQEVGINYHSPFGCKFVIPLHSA
# B2: TBC1 domain family member 5 (Homo sapiens), Q92609 (parent)
# chain: MYHSLSETRHPLQPEEQEVGIDPLSSYSNKSGGDSNKNGRRTSSTLDSEGTFNSYRKEWEELFVNNNYLATIRQKGINGQLRSSRFRSICWKLFLCVLPQDKSQWISRIEELRAWYSNIKEIHITNPRKVVGQQDLMINNPLSQDEGSLWNKFFQDKELRSMIEQDVKRTFPEMQFFQQENVRKILTDVLFCYARENEQLLYKQGMHELLAPIVFVLHCDHQAFLHASESAQPSEEMKTVLNPEYLEHDAYAVFSQLMETAEPWFSTFEHDGQKGKETLMTPIPFARPQDLGPTIAIVTKVNQIQDHLLKKHDIELYMHLNRLEIAPQIYGLRWVRLLFGREFPLQDLLVVWDALFADGLSLGLVDYIFVAMLLYIRDALISSNYQTCLGLLMHYPFIGDVHSLILKALFLRDPKRNPRPVTYQFHPNLDYYKARGADLMNKSRTNAKGAPLNINKVSNSLINFGRKLISPAMAPGSAGGPVPGGNSSSSSSVVIPTRTSAEAPSHHLQQQQQQQRLMKSESMPVQLNKGLSSKNISSSPSVESLPGGREFTGSPPSSATKKDSFFSNISRSRSHSKTMGRKESEEELEAQISFLQGQLNDLDAMCKYCAKVMDTHLVNIQDVILQENLEKEDQILVSLAGLKQIKDILKGSLRFNQSQLEAEENEQITIADNHYCSSGQGQGRGQGQSVQMSGAIKQASSETPGCTDRGNSDDFILISKDDDGSSARGSFSGQAQPLRTLRSTSGKSQAPVCSPLVFSDPLMGPASASSSNPSSSPDDDSSKDSGFTIVSPLDI
# B3: Nebulette (Homo sapiens), O76041 (parent)
# chain: MRVPVFEDIKDETEEEKIGEEENEEDQVFYKPVIEDLSMELARKCTELISDIRYKEEFKKSKDKCTFVTDSPMLNHVKNIGAFISEAKYKGTIKADLSNSLYKRMPATIDSVFAGEVTQLQSEVAYKQKHDAAKGFSDYAHMKEPPEVKHAMEVNKHQSNISYRKDVQDTHTYSAELDRPDIKMATQISKIISNAEYKKGQGIMNKEPAVIGRPDFEHAVEASKLSSQIKYKEKFDNEMKDKKHHYNPLESASFRQNQLAATLASNVKYKKDIQNMHDPVSDLPNLLFLDHVLKASKMLSGREYKKLFEENKGMYHFDADAVEHLHHKGNAVLQSQVKYKEEYEKNKGKPMLEFVETPSYQASKEAQKMQSEKVYKEDFEKEIKGRSSLDLDKTPEFLHVKYITNLLREKEYKKDLENEIKGKGMELNSEVLDIQRAKRASEMASEKEYKKDLESIIKGKGMQAGTDTLEMQHAKKAAEIASEKDYKRDLETEIKGKGMQVSTDTLDVQRAKKASEMASQKQYKKDLENEIKGKGMQVSMDIPDILRAKRTSEIYSQRKYKDEAEKMLSNYSTIADTPEIQRIKTTQQNISAVFYKKEVGAGTAVKDSPEIERVKKNQQNISSVKYKEEIKHATAISDPPELKRVKENQKNISNLQYKEQNYKATPVSMTPEIERVRRNQEQLSAVKYKGELQRGTAISDPPELKRAKENQKNISNVYYRGQLGRATTLSVTPEMERVKKNQENISSVKYTQDHKQMKGRPSLILDTPAMRHVKEAQNHISMVKYHEDFEKTKGRGFTPVVDDPVTERVRKNTQVVSDAAYKGVHPHIVEMDRRPGIIVDLKVWRTDPGSIFDLDPLEDNIQSRSLHMLSEKASHYRRHWSRSHSSSTFGTGLGDDRSEISEIYPSFSCCSEVTRPSDEGAPVLPGAYQQSHSQGYGYMHQTSVSSMRSMQHSPNLRTYRAMYDYSAQDEDEVSFRDGDYIVNVQPIDDGWMYGTVQRTGRTGMLPANYIEFVN
# partner: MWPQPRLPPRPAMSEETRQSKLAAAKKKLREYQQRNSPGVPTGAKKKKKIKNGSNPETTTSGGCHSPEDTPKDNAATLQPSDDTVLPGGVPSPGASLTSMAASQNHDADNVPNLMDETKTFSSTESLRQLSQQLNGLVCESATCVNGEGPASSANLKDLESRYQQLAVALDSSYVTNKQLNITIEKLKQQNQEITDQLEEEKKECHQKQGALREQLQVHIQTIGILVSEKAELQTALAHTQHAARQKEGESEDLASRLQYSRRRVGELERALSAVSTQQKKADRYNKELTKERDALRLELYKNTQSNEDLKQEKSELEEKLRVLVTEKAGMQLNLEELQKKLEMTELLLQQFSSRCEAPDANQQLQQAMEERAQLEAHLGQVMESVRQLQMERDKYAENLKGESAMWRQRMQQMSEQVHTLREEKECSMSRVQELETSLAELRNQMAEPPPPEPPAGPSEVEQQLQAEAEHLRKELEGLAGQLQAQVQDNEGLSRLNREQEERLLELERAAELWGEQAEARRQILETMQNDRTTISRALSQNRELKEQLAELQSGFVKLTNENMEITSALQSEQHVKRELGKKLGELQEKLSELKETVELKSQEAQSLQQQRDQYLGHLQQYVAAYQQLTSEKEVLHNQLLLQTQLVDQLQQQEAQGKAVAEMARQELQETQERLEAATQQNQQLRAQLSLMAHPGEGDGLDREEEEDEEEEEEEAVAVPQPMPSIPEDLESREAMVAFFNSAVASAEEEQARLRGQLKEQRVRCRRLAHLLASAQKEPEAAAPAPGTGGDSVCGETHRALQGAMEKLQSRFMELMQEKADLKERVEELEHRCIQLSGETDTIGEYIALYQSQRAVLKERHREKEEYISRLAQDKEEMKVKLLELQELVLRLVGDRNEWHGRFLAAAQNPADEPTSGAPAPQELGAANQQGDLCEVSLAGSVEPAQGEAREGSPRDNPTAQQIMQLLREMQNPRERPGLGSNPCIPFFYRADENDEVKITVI
# B4: Putative RNA-binding protein Luc7-like 2 (Homo sapiens), Q9Y383 (parent)
# chain: MSAQAQMRAMLDQLMGTSRDGDTTRQRIKFSDDRVCKSHLLNCCPHDVLSGTRMDLGECLKVHDLALRADYEIASKEQDFFFELDAMDHLQSFIADCDRRTEVAKKRLAETQEEISAEVAAKAERVHELNEEIGKLLAKVEQLGAEGNVEESQKVMDEVEKARAKKREAEEVYRNSMPASSFQQQKLRVCEVCSAYLGLHDNDRRLADHFGGKLHLGFIEIREKLEELKRVVAEKQEKRNQERLKRREEREREEREKLRRSRSHSKNPKRSRSREHRRHRSRSMSRERKRRTRSKSREKRHRHRSRSSSRSRSRSHQRSRHSSRDRSRERSKRRSSKERFRDQDLASCDRDRSSRDRSPRDRDRKDKKRSYESANGRSEDRRSSEEREAGEI
# partner: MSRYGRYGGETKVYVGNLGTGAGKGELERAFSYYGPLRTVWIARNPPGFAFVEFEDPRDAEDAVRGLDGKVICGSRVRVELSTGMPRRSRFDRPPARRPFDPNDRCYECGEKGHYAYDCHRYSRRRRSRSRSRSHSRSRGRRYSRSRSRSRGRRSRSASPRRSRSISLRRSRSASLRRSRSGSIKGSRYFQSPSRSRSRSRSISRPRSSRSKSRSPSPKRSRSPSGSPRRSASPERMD
# Variants of: B1
# Settings: with edc3_human EDC3, Q96F86
row,Variant,effect of a mutation on the interaction
1,M62T,disrupting interaction strength
2,M71L,with no effect

# Variants of: B2
# Settings: with ap2m1_human AP2M1, Q96CW1
# Chain of ap2m1_human AP2M1, Q96CW1 (Q96CW1 whole entry): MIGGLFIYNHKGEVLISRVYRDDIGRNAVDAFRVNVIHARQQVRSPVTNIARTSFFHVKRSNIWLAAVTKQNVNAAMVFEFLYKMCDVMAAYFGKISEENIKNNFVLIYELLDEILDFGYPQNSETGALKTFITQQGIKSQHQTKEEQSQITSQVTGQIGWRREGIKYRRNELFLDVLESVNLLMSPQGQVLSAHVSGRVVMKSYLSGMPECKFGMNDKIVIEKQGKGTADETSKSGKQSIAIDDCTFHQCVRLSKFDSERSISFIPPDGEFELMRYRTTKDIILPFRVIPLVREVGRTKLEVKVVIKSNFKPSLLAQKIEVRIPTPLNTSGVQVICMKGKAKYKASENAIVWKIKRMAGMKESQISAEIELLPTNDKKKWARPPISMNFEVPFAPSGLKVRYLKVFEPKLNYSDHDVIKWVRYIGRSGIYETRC
row,Variant,effect of a mutation on the interaction
1,Y375C,with no effect

# Variants of: B3
# Settings: with goga2_human GOLGA2, Q08379
row,Variant,effect of a mutation on the interaction
1,M351V,with no effect
2,R613Q,with no effect

# Variants of: B4
# Settings: with srsf7_human SRSF7, Q16629
row,Variant,effect of a mutation on the interaction
1,K368Q,with no effect
